Test results from patent US20240117043A1 (SHANGHAI JUNSHI BIOSCIENCES, published 2024).

Tests used:
[1] = target: T1, recombinant human HX1 hCD112R Fc (human, UniProt Q6DKI7 41-171, limits assumed); experiment: ELISA, relative binding activity, sample kept at 40 C for 0 weeks
T1 construct: Coated antigen of the ELISA (Suzhou Junmeng); also called human CD112R; not shown: Fc part
T1 sequence (looked up): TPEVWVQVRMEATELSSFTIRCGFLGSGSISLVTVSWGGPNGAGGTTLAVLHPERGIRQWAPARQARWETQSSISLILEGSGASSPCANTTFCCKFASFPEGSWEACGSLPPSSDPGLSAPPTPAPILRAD
Procedure: (§1) The antibody samples were exchanged into a pH 5.5 buffer system (20 mM histidine-histidine hydrochloride buffer, 230 mM trehalose) with the concentration of the samples controlled at about 5 mg/mL, and the buffer was aliquoted into vials at 500 μL/vial. The vials were placed in a 40° C. incubator to test stability at 0 W, 2 W and 4 W. Samples were sent for analysis according to Table 2. Stability was assessed by the following parameters: (a) the content of antibody monomers, aggregates or fragments determined by SEC-HPLC (size exclusion chromatography); (b) the molecular weight of the antibody determined by CE-SDS (sodium dodecyl sulfate capillary electrophoresis); and (c) the bioactivity of the antibody determined by an ELISA or reporter gene assay.

[2] = target: T2, recombinant human TIGIT (His Tag) (human, UniProt Q495A1 22-141); experiment: as above
T2 construct: Coated antigen of the ELISA; not shown: His tag
T2 sequence (looked up): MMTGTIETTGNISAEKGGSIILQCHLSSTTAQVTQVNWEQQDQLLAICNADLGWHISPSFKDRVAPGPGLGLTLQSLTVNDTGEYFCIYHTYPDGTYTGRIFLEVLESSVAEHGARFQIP
Procedure: as §1

[3] = target: T3, human TIGIT on the surface of Jurkat-hTIGIT cells (human, UniProt Q495A1 22-244); experiment: flow cytometry, blocking of 1 ug/mL PVR-mFc binding to Jurkat-hTIGIT cells
T3 construct: whole, on cells; also called human TIGIT on the surface of Jurkat cells
T3 sequence (looked up): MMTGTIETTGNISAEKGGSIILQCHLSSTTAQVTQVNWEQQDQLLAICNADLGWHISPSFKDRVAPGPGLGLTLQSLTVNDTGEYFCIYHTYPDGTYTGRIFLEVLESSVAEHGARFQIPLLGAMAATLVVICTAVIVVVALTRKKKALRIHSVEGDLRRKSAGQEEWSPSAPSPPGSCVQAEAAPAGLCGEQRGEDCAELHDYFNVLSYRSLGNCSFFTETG
Procedure: Jurkat-hTIGIT cells (human T lymphocytes, human TIGIT positive) were incubated with different concentrations of the bispecific antibodies JS-1, JS-3, JS-5 and JS-9 and 1 μg/mL human PVR-mFc protein at 4° C. for 30 min, then washed and incubated with a fluorescence-labeled anti-mouse IgG secondary antibody (1:200) in a dark place at 4° C. for 30 min. Finally, the cells were collected using a flow cytometer (BD Canto II), and the fluorescent antibodies bound to the cell surface were detected. Raw data were analyzed using FlowJo to obtain MFI values, antibody dose-dependent binding curves (FIG. 4) were fitted using GraphPad, and IC50 was calculated. The positive controls were hu20 (a recombinant humanized anti-TIGIT monoclonal antibody) and JS-Ref (Hengrui) (an anti-TIGIT/CD112R bispecific antibody of Hengrui, expressed and purified according to the sequence of the patent WO2021180205), and the negative control was an anti-KLH-hIgG4 antibody.

Row | Binder | CD112R binding activity Elisa (%) [1] | TIGIT binding activity Elisa (%) [2] | IC50 [3]
1 | bispecific antibody JS-1 (IgG4) (bispecific antibody, Three-chain knob-into-hole format: anti-TIGIT Fab arm and anti-CD112R scFv arm, IgG4 Fc) heavy: QVQLVQSGAEVKKPGASVKVSCKTSGYAFTEYTMHWVRQAPGKGLEWMGGINPNTGGTTYNQKFQGRVTLTVDKSSSTAYMELSSLRSEDTVVYYCAKLLRLMYYFDYWGQGTLVTVSSASTKGPSVFPLAPCSRSTSESTAALGCLVKDYFPEPVTVSWNSGALTSGVHTFPAVLQSSGLYSLSSVVTVPSSSLGTKTYTCNVDHKPSNTKVDKRVESKYGPPCPPCPAPEFLGGPSVFLFPPKPKDTLMISRTPEVTCVVVDVSQEDPEVQFNWYVDGVEVHNAKTKPREEQFNSTYRVVSVLTVLHQDWLNGKEYKCKVSNKGLPSSIEKTISKAKGQPREPQVYTLPPCQEEMTKNQVSLWCLVKGFYPSDIAVEWESNGQPENNYKTTPPVLDSDGSFFLYSRLTVDKSRWQEGNVFSCSVMHEALHNHYTQKSLSLSLGK light: not shown DIVMTQSPDSLAVSLGERATINCKASQSVSNDVAWYQQKPGQPPKLLIYYVSHRFTGVPDRFSGSGSGTDFTLTISSLQAEDVAVYFCHQAYRSPWTFGCGTKLEIKGGGGSGGGGSGGGGSGGGGSEVQLVESGGGLVKPGGSLRLSCAASGFTFSSYHMSWVRQAPGKCLELVSAINSNGINTYYLDTVKGRFTISRDNAKNSLYLQMNSLRAEDTAVYYCARHEDYYGFAMDYWGQGTLVTVSSGGGGSGGGGSESKYGPPCPPCPAPEFLGGPSVFLFPPKPKDTLMISRTPEVTCVVVDVSQEDPEVQFNWYVDGVEVHNAKTKPREEQFNSTYRVVSVLTVLHQDWLNGKEYKCKVSNKGLPSSIEKTISKAKGQPREPQVCTLPPSQEEMTKNQVSLSCAVKGFYPSDIAVEWESNGQPENNYKTTPPVLDSDGSFFLVSRLTVDKSRWQEGNVFSCSVMHEALHNRFTQKSLSLSLGK | 101% | 100% | 5.42 nM
2 | bispecific antibody JS-3 (IgG4) (bispecific antibody, Two-chain scFab/scFab knob-into-hole format, IgG4 Fc) chain 1: not shown chain 2: DIVMTQSPDSLAVSLGERATINCKASQSVSNDVAWYQQKPGQPPKLLIYYVSHRFTGVPDRFSGSGSGTDFTLTISSLQAEDVAVYFCHQAYRSPWTFGQGTKLEIKRTVAAPSVFIFPPSDEQLKSGTASVVCLLNNFYPREAKVQWKVDNALQSGNSQESVTEQDSKDSTYSLSSTLTLSKADYEKHKVYACEVTHQGLSSPVTKSFNRGECSGGGSGGGSEGGGSEGGGSEGGGSEGGGSGGGSGEVQLVESGGGLVKPGGSLRLSCAASGFTFSSYHMSWVRQAPGKGLELVSAINSNGINTYYLDTVKGRFTISRDNAKNSLYLQMNSLRAEDTAVYYCARHEDYYGFAMDYWGQGTLVTVSSASTKGPSVFPLAPCSRSTSESTAALGCLVKDYFPEPVTVSWNSGALTSGVHTFPAVLQSSGLYSLSSVVTVPSSSLGTKTYTCNVDHKPSNTKVDKRVESKYGPPCPPCPAPEFLGGPSVFLFPPKPKDTLMISRTPEVTCVVVDVSQEDPEVQFNWYVDGVEVHNAKTKPREEQFNSTYRVVSVLTVLHQDWLNGKEYKCKVSNKGLPSSIEKTISKAKGQPREPQVCTLPPSQEEMTKNQVSLSCAVKGFYPSDIAVEWESNGQPENNYKTTPPVLDSDGSFFLVSRLTVDKSRWQEGNVFSCSVMHEALHNRFTQKSLSLSLGK | 102% | 111% | 6.78 nM
